In paper PMC11145777:

Molecular target: native H3 (human (endogenous in HeLa)) (UniProt P68431)
Test: co-IP; native (unfixed) ChIP on mono-nucleosomes: native CpA from untransfected HeLa, GFP-CpA and HA-CpA from transfected HeLa, Western for H1.5 (three antibodies) and H2A; H3 ChIP done sequentially after the native CpA ChIP

Question: For “linker histone H1.5 (from UniProt P16401 1-226) (natural protein)”, which fold affinity against native CpA is on record?
Answer: The fold affinity against native CpA was 13 fold.
